The values that follow come from publication PMC8924211 (Nature Communications, 2022).

Common to all, as to assay: AlphaScreen or HTRF; saturation binding: HEK293 cells transfected with SNAP-tagged receptor (WT or mutant) and labelled with SNAP-Lumi4-Tb, incubated with increasing concentrations of galanin-A2 in the presence or absence of 100 uM unlabeled galanin, 1 h at room temperature; HTRF ratio 665 nm/620 nm
Conditions in all cases: one partner purified

Experiment [1] deals with T1, SNAP-GAL2R A170^ECL2S (human, UniProt O43603 1-387, A170^ECL2S, Lumi4-Tb on the SNAP tag).
T1 construct: also called A170S; source: HEK293, transfected, on cells; not shown: SNAP tag, N-terminal, kept
T1 sequence (looked up): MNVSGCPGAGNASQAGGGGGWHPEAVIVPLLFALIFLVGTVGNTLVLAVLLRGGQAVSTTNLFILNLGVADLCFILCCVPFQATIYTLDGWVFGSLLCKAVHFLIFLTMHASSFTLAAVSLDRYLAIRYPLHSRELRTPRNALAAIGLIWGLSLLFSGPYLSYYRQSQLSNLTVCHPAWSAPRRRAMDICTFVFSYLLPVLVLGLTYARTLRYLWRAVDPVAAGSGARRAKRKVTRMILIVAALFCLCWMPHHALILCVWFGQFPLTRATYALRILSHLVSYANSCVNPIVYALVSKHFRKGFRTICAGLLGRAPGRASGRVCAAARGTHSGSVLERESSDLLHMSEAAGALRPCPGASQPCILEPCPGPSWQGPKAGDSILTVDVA

Experiment [2] has as its target T2, SNAP-GAL2R T267^7.28A (human, UniProt O43603 1-387, T267^7.28A, Lumi4-Tb on the SNAP tag).
T2 construct: also called T267A; source: HEK293, transfected, on cells; not shown: SNAP tag, N-terminal, kept
T2 sequence (looked up): T1 sequence (looked up) with S170A, T267A

The target in experiment [3] is T3, SNAP-GAL2R R274^7.35A (human, UniProt O43603 1-387, R274^7.35A, Lumi4-Tb on the SNAP tag).
T3 construct: also called R274A; source: HEK293, transfected, on cells; not shown: SNAP tag, N-terminal, kept
T3 sequence (looked up): T1 sequence (looked up) with S170A, R274A

Experiment [4] concerns the target T4, SNAP-GAL2R W249^6.48A (human, UniProt O43603 1-387, W249^6.48A, Lumi4-Tb on the SNAP tag).
T4 construct: also called W249A; source: HEK293, transfected, on cells; not shown: SNAP tag, N-terminal, kept
T4 sequence (looked up): T1 sequence (looked up) with S170A, W249A

Where a chain is given by its changes, count along the chain named.

B1: galanin-A2 (full-length galanin labeled with the dye A2 on an additional cysteine at the C-terminal end) (peptide)
peptide: GWTLNSAGYLLGPHAVGNHRSFSDKNGLTSC
modifications: dye A2 on the additional C-terminal cysteine
notes: numbers count on: the mature protein; additional cysteine at the C-terminal end of the peptide, carries the dye A2; source: synthetic peptide (synthesized by Vazyme, China)
A word on the Kd: it is the equilibrium constant for the complex coming apart. In the case of B1, the Kd came to 33.5 nM in experiment [1], 229 nM in experiment [2], 553 nM in experiment [3] and 23.3 nM in experiment [4].
